One assay addresses HLA-A*02 (Homo sapiens, UniProt P04439, D140Y/D185E/D98H/E176V/E277Q/G131W/G231S/I119V/I121R/I166T/I218V/N151K/N90K/P208A/P217A/Q86G/Q94H/R138H/R169H). The assay is described as follows: MHC binding assay: UV-ligand exchange, beta2m ELISA (peptide exchange yield). The settings on record: binding to HLA-A*02, β2m ELISA. The text has this: (§1) Candidate peptides for T cell based therapies according to the present invention were further tested for their MHC binding capacity (affinity). The individual peptide-MHC complexes were produced by UV-ligand exchange, where a UV-sensitive peptide is cleaved upon UV-irradiation, and exchanged with the peptide of interest as analyzed. Only peptide candidates that can effectively bind and stabilize the peptide-receptive MHC molecules prevent dissociation of the MHC complexes. To determine the yield of the exchange reaction, an ELISA was performed based on the detection of the light chain (β2m) of stabilized MHC complexes. The assay was performed as generally described in Rodenko et al. (Rodenko et al., 2006).
(§2) 96 well MAXISorp plates (NUNC) were coated over night with 2 ug/ml streptavidin in PBS at room temperature, washed 4× and blocked for 1 h at 37° C. in 2% BSA containing blocking buffer. […] Peptide-MHC monomers of the UV-exchange reaction were diluted 100 fold in blocking buffer. Samples were incubated for 1 h at 37° C., washed four times, incubated with 2 ug/ml HRP conjugated anti-βm for 1 h at 37° C., washed again and detected with TMB solution that is stopped with […]. Absorption was measured at 450 nm. Candidate peptides that show a high exchange yield (preferably higher than 50%, most preferred higher than 75%) are generally preferred for a generation and production of antibodies or fragments thereof, and/or T cell receptors or fragments thereof, as they show sufficient avidity to the MHC molecules and prevent dissociation of the MHC complexes.
Background: In an ELISA, binding on a coated surface is turned into a signal by an enzyme label.

For another assay, the system named is HLA-A*24. Described as above. Set-up: species or system human. The settings on record: binding to HLA-A*24, β2m ELISA.
Text: as §1, §2

On to “67 (GVIETVTSL; listed as Homo sapiens) [compound 67]”, for which the “Peptide exchange (MHC class I binding score, peptide exchange yield)” value (from here on “Peptide exchange”) with HLA-A*02 is recorded as “++ (20%-49% = ++)”.
Turning to “69 (GIYDGILHSI; listed as Homo sapiens) [compound 69]”, the “Peptide exchange” value with HLA-A*02 was “+++ (50%-75% = +++)”.
On the same count and under the same terms, to “70 (GLFSQHFNL; listed as Homo sapiens) [compound 70]” belongs “+++ (50%-75% = +++)”; to “71 (GLITVDIAL; listed as Homo sapiens) [compound 71]”, “+++ (50%-75% = +++)”.
On the same count and under the same terms, to “72 (GMIGFQVLL; listed as Homo sapiens) [compound 72]” belongs “+++ (50%-75% = +++)”; to “74 (ILDETLENV; listed as Homo sapiens) [compound 74]”, “++ (20%-49% = ++)”.
“75 (ILDNVKNLL; listed as Homo sapiens) [compound 75]”: in the assay with HLA-A*02, the “Peptide exchange” value was “+++ (50%-75% = +++)”.
On the same count and under the same terms, to “76 (ILLDESNFNHFL; listed as Homo sapiens) [compound 76]” belongs “+++ (50%-75% = +++)”; to “77 (IVLSTIASV; listed as Homo sapiens) [compound 77]”, “+++ (50%-75% = +++)”.
As to “78 (LLWGHPRVA; listed as Homo sapiens) [compound 78]”, the “Peptide exchange” value with HLA-A*02 was “+++ (50%-75% = +++)”.
The same measure, in the same setting: to “79 (SLVPLQILL; listed as Homo sapiens) [compound 79]” belongs “++++ (>= 75% = ++++)”; to “80 (TLDEYLTYL; listed as Homo sapiens) [compound 80]”, “+++ (50%-75% = +++)”.
Same read-out and setting: to “81 (VLFLGKLLV; listed as Homo sapiens) [compound 81]” belongs “++ (20%-49% = ++)”; to “82 (VLLRVLIL; listed as Homo sapiens) [compound 82]”, “++ (20%-49% = ++)”.
Same read-out and setting: to “83 (ELLEYLPQL; listed as Homo sapiens) [compound 83]” belongs “+++ (50%-75% = +++)”.
As for “84 (FLEEEITRV; listed as Homo sapiens) [compound 84]”, in the assay with HLA-A*02, the “Peptide exchange” value is recorded as “+++ (50%-75% = +++)”.
The same measure, in the same setting: to “85 (STLDGSLHAV; listed as Homo sapiens) [compound 85]” belongs “+++ (50%-75% = +++)”; to “87 (YLTEVFLHVV; listed as Homo sapiens) [compound 87]”, “+++ (50%-75% = +++)”.
On the same count and under the same terms, to “88 (ILLNTEDLASL; listed as Homo sapiens) [compound 88]” belongs “+++ (50%-75% = +++)”; to “89 (YLVAHNLLL; listed as Homo sapiens) [compound 89]”, “+++ (50%-75% = +++)”; to “90 (GAVAEEVLSSI; listed as Homo sapiens) [compound 90]”, “+ (<20% = +)”.
For “91 (SSLEPQIQPV; listed as Homo sapiens) [compound 91]”, in the assay with HLA-A*02, the “Peptide exchange” value was “+ (<20% = +)”.
Still for that read-out and setting: to “92 (LLRGPPVARA; listed as Homo sapiens) [compound 92]” belongs “++ (20%-49% = ++)”; to “93 (SLLTQPIFL; listed as Homo sapiens) [compound 93]”, “+++ (50%-75% = +++)”.
Take “97 (TYTFLKETF; listed as Homo sapiens) [compound 97]”: the “Peptide exchange” value in the assay with HLA-A*24 is recorded as “++++ (>= 75% = ++++)”.
Regarding “116 (AYVIAVHLF; listed as Homo sapiens) [compound 116]”, in the assay on HLA-A*24, the “Peptide exchange” value was “++++ (>= 75% = ++++)”.
Still for that read-out and setting: to “128 (VYPFDWQYI; listed as Homo sapiens) [compound 128]” belongs “++++ (>= 75% = ++++)”; to “129 (KYIDYLMTW; listed as Homo sapiens) [compound 129]”, “++++ (>= 75% = ++++)”; to “135 (VYEAMVPLF; listed as Homo sapiens) [compound 135]”, “++++ (>= 75% = ++++)”.
On to “148 (SYGTVSQIF; listed as Homo sapiens) [compound 148]”, for which, in the assay with HLA-A*24, the “Peptide exchange” value was “++++ (>= 75% = ++++)”.
Still for that read-out and setting: to “149 (SYGTVSQI; listed as Homo sapiens) [compound 149]” belongs “++++ (>= 75% = ++++)”; to “153 (VYVPFGGKSMITF; listed as Homo sapiens) [compound 153]”, “++++ (>= 75% = ++++)”; to “154 (VYGVPTPHF; listed as Homo sapiens) [compound 154]”, “++++ (>= 75% = ++++)”.
In the case of “173 (QYLEKYYNL; listed as Homo sapiens) [compound 173]”, the “Peptide exchange” value in the assay with HLA-A*24 is recorded as “++++ (>= 75% = ++++)”.
As to “184 (IYSVGAFENF; listed as Homo sapiens) [compound 184]”, the “Peptide exchange” value in the assay on HLA-A*24 is on record as “++++ (>= 75% = ++++)”.
Still for that read-out and setting: to “185 (QYLVHVNDL; listed as Homo sapiens) [compound 185]” belongs “++++ (>= 75% = ++++)”; to “187 (AYAANVHYL; listed as Homo sapiens) [compound 187]”, “++++ (>= 75% = ++++)”.
On to “196 (GYIRGSWQF; listed as Homo sapiens) [compound 196]”, for which the “Peptide exchange” value with HLA-A*24 is given as “++++ (>= 75% = ++++)”.
Still for that read-out and setting: to “197 (IFTDIFHYL; listed as Homo sapiens) [compound 197]” belongs “++++ (>= 75% = ++++)”.
Consider “321 (SLWFKPEEL; listed as Homo sapiens) [compound 321]”, for which, in the assay with HLA-A*02, the “Peptide exchange” value is recorded as “+++ (50%-75% = +++)”.
Same read-out and setting: to “323 (ILSVVNSQL; listed as Homo sapiens) [compound 323]” belongs “+++ (50%-75% = +++)”; to “324 (AIFDFCPSV; listed as Homo sapiens) [compound 324]”, “++++ (>= 75% = ++++)”.
Same read-out and setting: to “325 (RLLPKVQEV; listed as Homo sapiens) [compound 325]” belongs “++ (20%-49% = ++)”; to “326 (SLLPLVWKI; listed as Homo sapiens) [compound 326]”, “+++ (50%-75% = +++)”.
Still for that read-out and setting: to “327 (SIGDIFLKY; listed as Homo sapiens) [compound 327]” belongs “+++ (50%-75% = +++)”; to “328 (SVDSAPAAV; listed as Homo sapiens) [compound 328]”, “++ (20%-49% = ++)”; to “329 (FAWEPSFRDQV; listed as Homo sapiens) [compound 329]”, “++ (20%-49% = ++)”.
Turning to “330 (FLWPKEVEL; listed as Homo sapiens) [compound 330]”, in the assay with HLA-A*02, the “Peptide exchange” value is listed as “+++ (50%-75% = +++)”.
As for “333 (GTFLEGVAK; listed as Homo sapiens) [compound 333]”, in the assay with HLA-A*02, the “Peptide exchange” value is given as “+++ (50%-75% = +++)”.
The same measure, in the same setting: to “334 (GRADALRVL; listed as Homo sapiens) [compound 334]” belongs “+++ (50%-75% = +++)”.
The same measure, in the same setting: to “335 (VLLAAGPSAA; listed as Homo sapiens) [compound 335]” belongs “++ (20%-49% = ++)”; to “336 (GLMDGSPHFL; listed as Homo sapiens) [compound 336]”, “++ (20%-49% = ++)”.
For “337 (KVLGKIEKV; listed as Homo sapiens) [compound 337]”, the “Peptide exchange” value with HLA-A*02 is on record as “+++ (50%-75% = +++)”.
The same measure, in the same setting: to “338 (LLYDGKLSSA; listed as Homo sapiens) [compound 338]” belongs “++ (20%-49% = ++)”; to “339 (VLGPGPPPL; listed as Homo sapiens) [compound 339]”, “++ (20%-49% = ++)”; to “340 (SVAKTILKR; listed as Homo sapiens) [compound 340]”, “++ (20%-49% = ++)”.

(Values after patent publication US10568950B1, “Peptides, combination of peptides and scaffolds for use in immunotherapeutic treatment of various cancers” (Immatics Biotechnologies GmbH, priority 2015, dated 2020).)
